Common to all, as to conditions: tags: C-terminal GS linker-SV40 NLS
One data set has as its target T1, Int22 (Geobacillus thermoglucosidasius C56-YS93).
T1 chain: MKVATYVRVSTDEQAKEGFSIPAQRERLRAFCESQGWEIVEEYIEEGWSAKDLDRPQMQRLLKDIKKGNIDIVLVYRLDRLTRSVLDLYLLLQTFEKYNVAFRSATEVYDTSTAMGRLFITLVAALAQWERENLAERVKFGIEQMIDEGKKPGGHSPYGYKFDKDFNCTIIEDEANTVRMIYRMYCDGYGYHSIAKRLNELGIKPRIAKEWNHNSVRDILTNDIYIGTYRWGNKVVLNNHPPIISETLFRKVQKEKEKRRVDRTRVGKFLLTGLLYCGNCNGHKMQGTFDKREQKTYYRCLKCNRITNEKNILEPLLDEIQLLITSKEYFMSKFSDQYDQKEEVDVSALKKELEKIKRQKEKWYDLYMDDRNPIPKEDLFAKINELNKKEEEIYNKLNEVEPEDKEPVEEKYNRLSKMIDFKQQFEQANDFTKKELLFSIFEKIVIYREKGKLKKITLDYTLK
Kind of data set: cell_activity; attB x attP EGFP inversion reporter, HEK293FT.

Another data set deals with T2, Int18 (Streptococcus pneumoniae JJA).
T2 chain: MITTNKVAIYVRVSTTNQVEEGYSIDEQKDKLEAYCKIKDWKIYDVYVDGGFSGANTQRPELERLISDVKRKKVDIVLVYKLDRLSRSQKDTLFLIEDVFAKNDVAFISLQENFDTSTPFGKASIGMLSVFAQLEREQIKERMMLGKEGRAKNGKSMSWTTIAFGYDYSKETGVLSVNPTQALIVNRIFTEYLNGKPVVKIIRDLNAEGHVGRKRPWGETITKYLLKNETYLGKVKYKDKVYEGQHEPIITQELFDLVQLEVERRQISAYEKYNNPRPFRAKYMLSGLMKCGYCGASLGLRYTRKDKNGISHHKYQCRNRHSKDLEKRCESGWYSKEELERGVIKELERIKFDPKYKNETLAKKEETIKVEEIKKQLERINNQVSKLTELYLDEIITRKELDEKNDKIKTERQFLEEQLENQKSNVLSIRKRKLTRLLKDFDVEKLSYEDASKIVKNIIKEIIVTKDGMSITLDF
Kind of data set: cell_activity.

The target in the next data set is T3, Int13 (Bacillus cytotoxicus NVH 391-98).
T3 chain: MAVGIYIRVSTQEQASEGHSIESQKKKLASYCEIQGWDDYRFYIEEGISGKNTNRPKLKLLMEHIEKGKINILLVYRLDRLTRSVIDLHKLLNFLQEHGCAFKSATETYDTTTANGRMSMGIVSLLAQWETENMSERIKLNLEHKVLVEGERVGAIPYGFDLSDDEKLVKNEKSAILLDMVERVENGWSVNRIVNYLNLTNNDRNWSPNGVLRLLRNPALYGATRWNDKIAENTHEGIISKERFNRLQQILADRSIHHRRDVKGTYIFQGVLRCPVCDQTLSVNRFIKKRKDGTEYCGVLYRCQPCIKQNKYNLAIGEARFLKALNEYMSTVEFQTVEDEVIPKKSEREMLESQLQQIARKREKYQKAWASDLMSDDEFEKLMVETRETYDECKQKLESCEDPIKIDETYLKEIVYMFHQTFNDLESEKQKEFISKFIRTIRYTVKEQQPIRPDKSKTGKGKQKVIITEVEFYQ
Kind of data set: cell_activity; attB x attP EGFP inversion reporter, HEK293FT.

A further data set concerns the target T4, Int16 (Enterococcus faecalis D32).
T4 chain: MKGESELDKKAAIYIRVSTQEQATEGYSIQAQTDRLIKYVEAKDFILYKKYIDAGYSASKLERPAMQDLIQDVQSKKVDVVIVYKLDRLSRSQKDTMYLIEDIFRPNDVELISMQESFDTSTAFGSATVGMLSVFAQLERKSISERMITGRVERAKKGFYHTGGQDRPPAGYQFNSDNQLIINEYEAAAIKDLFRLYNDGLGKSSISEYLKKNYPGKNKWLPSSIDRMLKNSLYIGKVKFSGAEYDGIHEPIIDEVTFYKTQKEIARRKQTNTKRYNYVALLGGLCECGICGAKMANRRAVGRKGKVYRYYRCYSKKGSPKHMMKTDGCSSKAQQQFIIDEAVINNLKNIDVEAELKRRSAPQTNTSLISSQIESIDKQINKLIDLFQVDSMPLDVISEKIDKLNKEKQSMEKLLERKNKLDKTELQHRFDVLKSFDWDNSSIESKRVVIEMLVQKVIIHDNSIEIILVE
Kind of data set: cell_activity.

The target of another data set is T5, Int15 (Listeria monocytogenes SLCC2372 (phage …)).
T5 chain: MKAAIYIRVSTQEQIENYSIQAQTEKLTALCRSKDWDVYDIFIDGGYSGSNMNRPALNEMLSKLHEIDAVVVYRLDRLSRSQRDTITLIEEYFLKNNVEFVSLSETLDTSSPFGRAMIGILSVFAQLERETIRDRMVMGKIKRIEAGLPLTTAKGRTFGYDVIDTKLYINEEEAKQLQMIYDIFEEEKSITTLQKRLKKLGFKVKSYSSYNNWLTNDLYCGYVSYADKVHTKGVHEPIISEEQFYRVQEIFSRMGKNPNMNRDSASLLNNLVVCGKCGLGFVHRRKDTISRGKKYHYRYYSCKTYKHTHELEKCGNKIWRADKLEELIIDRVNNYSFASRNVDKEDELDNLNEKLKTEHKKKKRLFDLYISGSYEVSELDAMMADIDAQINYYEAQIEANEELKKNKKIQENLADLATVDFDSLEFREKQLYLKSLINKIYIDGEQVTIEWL
Description: cell_activity.

Another data set addresses T6, Int14 (Listeria innocua Clip11262).
T6 chain: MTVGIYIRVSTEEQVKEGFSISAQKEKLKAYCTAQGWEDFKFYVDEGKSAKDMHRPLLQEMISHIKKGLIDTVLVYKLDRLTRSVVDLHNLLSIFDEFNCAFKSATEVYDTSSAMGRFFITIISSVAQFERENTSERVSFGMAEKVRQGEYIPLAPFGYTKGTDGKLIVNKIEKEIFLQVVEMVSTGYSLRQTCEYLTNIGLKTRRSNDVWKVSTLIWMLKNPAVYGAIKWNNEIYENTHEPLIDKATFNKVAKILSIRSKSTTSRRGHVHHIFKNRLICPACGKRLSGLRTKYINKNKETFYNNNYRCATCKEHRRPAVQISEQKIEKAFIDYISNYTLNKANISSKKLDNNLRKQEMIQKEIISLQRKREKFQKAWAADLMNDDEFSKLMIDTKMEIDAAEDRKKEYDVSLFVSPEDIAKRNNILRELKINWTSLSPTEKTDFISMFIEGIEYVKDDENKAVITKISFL
Kind of data set: cell_activity; attB x attP EGFP inversion reporter, HEK293FT.

The next data set concerns the target T7, Int21 (Streptococcus mitis B6).
T7 chain: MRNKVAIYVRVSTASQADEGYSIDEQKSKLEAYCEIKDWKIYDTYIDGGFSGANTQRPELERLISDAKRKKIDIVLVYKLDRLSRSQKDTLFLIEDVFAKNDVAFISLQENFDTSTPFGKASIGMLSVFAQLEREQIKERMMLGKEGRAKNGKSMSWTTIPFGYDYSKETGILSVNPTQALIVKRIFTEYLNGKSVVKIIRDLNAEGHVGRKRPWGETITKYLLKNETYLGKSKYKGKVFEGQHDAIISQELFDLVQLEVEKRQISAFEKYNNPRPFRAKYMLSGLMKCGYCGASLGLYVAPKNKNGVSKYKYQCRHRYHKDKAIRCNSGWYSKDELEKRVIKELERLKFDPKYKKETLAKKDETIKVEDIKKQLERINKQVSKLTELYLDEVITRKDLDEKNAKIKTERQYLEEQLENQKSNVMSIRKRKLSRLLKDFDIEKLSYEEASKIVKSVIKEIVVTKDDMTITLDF
The data set is described as above.

B1: Int22 attP (dsDNA)
DNA 1: TTATAAACCTGTTTTAAAGTTAACTTTACATGCCTAACATTAACTCTTATACAGGTTAAGGT
DNA 2: ACCTTAACCTGTATAAGAGTTAATGTTAGGCATGTAAAGTTAACTTTAAAACAGGTTTATAA
With B1, in the data set with Int22, the binding signal was 0.945 fraction of Bxb1.

B2: Int18 attB (dsDNA)
DNA 1: TCTGGTGTAGACGTTAAACGTCCAATCAAGATAACTTTATTATACATATTTTCTTCCTCCTA
DNA 2: TAGGAGGAAGAAAATATGTATAATAAAGTTATCTTGATTGGACGTTTAACGTCTACACCAGA
Regarding B2, the binding signal with Int18 was 1.76 fraction of Bxb1.

B3: Int13 attP (dsDNA)
DNA 1: CAATAACGGTTGTATTTGTAGAACTTGACCAGTTGTTTTAGTAACATAAATACAACTCCGAATA
DNA 2: TATTCGGAGTTGTATTTATGTTACTAAAACAACTGGTCAAGTTCTACAAATACAACCGTTATTG
Consider B3, for which the binding signal in the data set with Int13 was 0.295 fraction of Bxb1.

B4: Int16 attB (dsDNA)
DNA 1: TTCTGGACCATGATGCGCCACTTCCGAAATTTCAAAAAGATCAGTGGTCAAACGGCTCATTA
DNA 2: TAATGAGCCGTTTGACCACTGATCTTTTTGAAATTTCGGAAGTGGCGCATCATGGTCCAGAA
In the case of B4, in the data set with Int16, the binding signal was 0.21 fraction of Bxb1.

B5: Int13 attB (dsDNA)
DNA 1: CGCATACATTGTTGTTGTTTTTCCAGATCCAGTTGGTCCTGTAAATATAAGCAATCCATGTGAGT
DNA 2: ACTCACATGGATTGCTTATATTTACAGGACCAACTGGATCTGGAAAAACAACAACAATGTATGCG
Regarding B5, the binding signal with Int13 is 0.295 fraction of Bxb1.

B6: Int15 attB (dsDNA)
DNA 1: CTGTAACTTTTTCGGATCAAGCTATGAGGGACGCAAAGAGGGAACTAAACACTTAATTGGTG
DNA 2: CACCAATTAAGTGTTTAGTTCCCTCTTTGCGTCCCTCATAGCTTGATCCGAAAAAGTTACAG
For B6, in the data set with Int15, the binding signal was 1.86 fraction of Bxb1.

B7: Int14 attB (dsDNA)
DNA 1: TTATTGCAAGAAAAATGGGTTATAAGTACACATCAGGTTATAGTAATATCGAAAAAGGAAGC
DNA 2: GCTTCCTTTTTCGATATTACTATAACCTGATGTGTACTTATAACCCATTTTTCTTGCAATAA
Regarding B7, in the data set with Int14, the binding signal is 0.248 fraction of Bxb1.

B8: Int15 attP (dsDNA)
DNA 1: TTGTTTAGTCCCTCGTTTTCTCTCGTTGGACGGAGACGAATCGAGAAACTAAAATTATAAAT
DNA 2: ATTTATAATTTTAGTTTCTCGATTCGTCTCCGTCCAACGAGAGAAAACGAGGGACTAAACAA
Take B8: the binding signal with Int15 is 1.86 fraction of Bxb1.

B9: Int16 attP (dsDNA)
DNA 1: GTATCTTGATGTACAACATTACTCTTTATTTTCAAATACAGAATAATGTTGCATATAATATT
DNA 2: AATATTATATGCAACATTATTCTGTATTTGAAAATAAAGAGTAATGTTGTACATCAAGATAC
In the case of B9, in the data set with Int16, the binding signal is 0.21 fraction of Bxb1.

B10: Int21 attB (dsDNA)
DNA 1: TAGGAGGAAAAAATATGTATAATAAAGTTATCATGATTGGGCGTTTGACGTCTACACCAGAAT
DNA 2: ATTCTGGTGTAGACGTCAAACGCCCAATCATGATAACTTTATTATACATATTTTTTCCTCCTA
Regarding B10, the binding signal with Int21 was 0.184 fraction of Bxb1.

B11: Int14 attP (dsDNA)
DNA 1: TTATATAAAATAGTGTTTTTGTAAAGTACACATCACCATATTTGACAAAAAACCTATAAATA
DNA 2: TATTTATAGGTTTTTTGTCAAATATGGTGATGTGTACTTTACAAAAACACTATTTTATATAA
As to B11, in the data set with Int14, the binding signal was 0.248 fraction of Bxb1.

B12: Int22 attB (dsDNA)
DNA 1: CAAGAAACGTTCCGTCTGTTTGTGTCAGCTGCGCGAAATTAATGACCGGATCGTTTGTTCC
DNA 2: GGAACAAACGATCCGGTCATTAATTTCGCGCAGCTGACACAAACAGACGGAACGTTTCTTG
As for B12, in the data set with Int22, the binding signal was 0.945 fraction of Bxb1.

B13: Int21 attP (dsDNA)
DNA 1: GTTAATAATATGTATTTAAGTCTAACTTATCATGACAAATTTGACTAAAATACAAAAAGGC
DNA 2: GCCTTTTTGTATTTTAGTCAAATTTGTCATGATAAGTTAGACTTAAATACATATTATTAAC
Consider B13, for which, in the data set with Int21, the binding signal is 0.184 fraction of Bxb1.

B14: Int18 attP (dsDNA)
DNA 1: TATTTCTGTATTTTAGTCAAAGTAATTAAGATAAGTTAGAGTTAGTAACAGTATTTTAACTT
DNA 2: AAGTTAAAATACTGTTACTAACTCTAACTTATCTTAATTACTTTGACTAAAATACAGAAATA
Turning to B14, the binding signal in the data set with Int18 was 1.76 fraction of Bxb1.
